In patent US20240295565A1 (Genentech, published 2024):

Target: human UNC80 (uncoordinated 80; protein unc-80 homolog) (human) (UniProt Q8N2C7)
Test: cryo-EM structure, crossover interface

Chain of human UNC80 (uncoordinated 80; protein unc-80 homolog) (human) (Q8N2C7 whole entry): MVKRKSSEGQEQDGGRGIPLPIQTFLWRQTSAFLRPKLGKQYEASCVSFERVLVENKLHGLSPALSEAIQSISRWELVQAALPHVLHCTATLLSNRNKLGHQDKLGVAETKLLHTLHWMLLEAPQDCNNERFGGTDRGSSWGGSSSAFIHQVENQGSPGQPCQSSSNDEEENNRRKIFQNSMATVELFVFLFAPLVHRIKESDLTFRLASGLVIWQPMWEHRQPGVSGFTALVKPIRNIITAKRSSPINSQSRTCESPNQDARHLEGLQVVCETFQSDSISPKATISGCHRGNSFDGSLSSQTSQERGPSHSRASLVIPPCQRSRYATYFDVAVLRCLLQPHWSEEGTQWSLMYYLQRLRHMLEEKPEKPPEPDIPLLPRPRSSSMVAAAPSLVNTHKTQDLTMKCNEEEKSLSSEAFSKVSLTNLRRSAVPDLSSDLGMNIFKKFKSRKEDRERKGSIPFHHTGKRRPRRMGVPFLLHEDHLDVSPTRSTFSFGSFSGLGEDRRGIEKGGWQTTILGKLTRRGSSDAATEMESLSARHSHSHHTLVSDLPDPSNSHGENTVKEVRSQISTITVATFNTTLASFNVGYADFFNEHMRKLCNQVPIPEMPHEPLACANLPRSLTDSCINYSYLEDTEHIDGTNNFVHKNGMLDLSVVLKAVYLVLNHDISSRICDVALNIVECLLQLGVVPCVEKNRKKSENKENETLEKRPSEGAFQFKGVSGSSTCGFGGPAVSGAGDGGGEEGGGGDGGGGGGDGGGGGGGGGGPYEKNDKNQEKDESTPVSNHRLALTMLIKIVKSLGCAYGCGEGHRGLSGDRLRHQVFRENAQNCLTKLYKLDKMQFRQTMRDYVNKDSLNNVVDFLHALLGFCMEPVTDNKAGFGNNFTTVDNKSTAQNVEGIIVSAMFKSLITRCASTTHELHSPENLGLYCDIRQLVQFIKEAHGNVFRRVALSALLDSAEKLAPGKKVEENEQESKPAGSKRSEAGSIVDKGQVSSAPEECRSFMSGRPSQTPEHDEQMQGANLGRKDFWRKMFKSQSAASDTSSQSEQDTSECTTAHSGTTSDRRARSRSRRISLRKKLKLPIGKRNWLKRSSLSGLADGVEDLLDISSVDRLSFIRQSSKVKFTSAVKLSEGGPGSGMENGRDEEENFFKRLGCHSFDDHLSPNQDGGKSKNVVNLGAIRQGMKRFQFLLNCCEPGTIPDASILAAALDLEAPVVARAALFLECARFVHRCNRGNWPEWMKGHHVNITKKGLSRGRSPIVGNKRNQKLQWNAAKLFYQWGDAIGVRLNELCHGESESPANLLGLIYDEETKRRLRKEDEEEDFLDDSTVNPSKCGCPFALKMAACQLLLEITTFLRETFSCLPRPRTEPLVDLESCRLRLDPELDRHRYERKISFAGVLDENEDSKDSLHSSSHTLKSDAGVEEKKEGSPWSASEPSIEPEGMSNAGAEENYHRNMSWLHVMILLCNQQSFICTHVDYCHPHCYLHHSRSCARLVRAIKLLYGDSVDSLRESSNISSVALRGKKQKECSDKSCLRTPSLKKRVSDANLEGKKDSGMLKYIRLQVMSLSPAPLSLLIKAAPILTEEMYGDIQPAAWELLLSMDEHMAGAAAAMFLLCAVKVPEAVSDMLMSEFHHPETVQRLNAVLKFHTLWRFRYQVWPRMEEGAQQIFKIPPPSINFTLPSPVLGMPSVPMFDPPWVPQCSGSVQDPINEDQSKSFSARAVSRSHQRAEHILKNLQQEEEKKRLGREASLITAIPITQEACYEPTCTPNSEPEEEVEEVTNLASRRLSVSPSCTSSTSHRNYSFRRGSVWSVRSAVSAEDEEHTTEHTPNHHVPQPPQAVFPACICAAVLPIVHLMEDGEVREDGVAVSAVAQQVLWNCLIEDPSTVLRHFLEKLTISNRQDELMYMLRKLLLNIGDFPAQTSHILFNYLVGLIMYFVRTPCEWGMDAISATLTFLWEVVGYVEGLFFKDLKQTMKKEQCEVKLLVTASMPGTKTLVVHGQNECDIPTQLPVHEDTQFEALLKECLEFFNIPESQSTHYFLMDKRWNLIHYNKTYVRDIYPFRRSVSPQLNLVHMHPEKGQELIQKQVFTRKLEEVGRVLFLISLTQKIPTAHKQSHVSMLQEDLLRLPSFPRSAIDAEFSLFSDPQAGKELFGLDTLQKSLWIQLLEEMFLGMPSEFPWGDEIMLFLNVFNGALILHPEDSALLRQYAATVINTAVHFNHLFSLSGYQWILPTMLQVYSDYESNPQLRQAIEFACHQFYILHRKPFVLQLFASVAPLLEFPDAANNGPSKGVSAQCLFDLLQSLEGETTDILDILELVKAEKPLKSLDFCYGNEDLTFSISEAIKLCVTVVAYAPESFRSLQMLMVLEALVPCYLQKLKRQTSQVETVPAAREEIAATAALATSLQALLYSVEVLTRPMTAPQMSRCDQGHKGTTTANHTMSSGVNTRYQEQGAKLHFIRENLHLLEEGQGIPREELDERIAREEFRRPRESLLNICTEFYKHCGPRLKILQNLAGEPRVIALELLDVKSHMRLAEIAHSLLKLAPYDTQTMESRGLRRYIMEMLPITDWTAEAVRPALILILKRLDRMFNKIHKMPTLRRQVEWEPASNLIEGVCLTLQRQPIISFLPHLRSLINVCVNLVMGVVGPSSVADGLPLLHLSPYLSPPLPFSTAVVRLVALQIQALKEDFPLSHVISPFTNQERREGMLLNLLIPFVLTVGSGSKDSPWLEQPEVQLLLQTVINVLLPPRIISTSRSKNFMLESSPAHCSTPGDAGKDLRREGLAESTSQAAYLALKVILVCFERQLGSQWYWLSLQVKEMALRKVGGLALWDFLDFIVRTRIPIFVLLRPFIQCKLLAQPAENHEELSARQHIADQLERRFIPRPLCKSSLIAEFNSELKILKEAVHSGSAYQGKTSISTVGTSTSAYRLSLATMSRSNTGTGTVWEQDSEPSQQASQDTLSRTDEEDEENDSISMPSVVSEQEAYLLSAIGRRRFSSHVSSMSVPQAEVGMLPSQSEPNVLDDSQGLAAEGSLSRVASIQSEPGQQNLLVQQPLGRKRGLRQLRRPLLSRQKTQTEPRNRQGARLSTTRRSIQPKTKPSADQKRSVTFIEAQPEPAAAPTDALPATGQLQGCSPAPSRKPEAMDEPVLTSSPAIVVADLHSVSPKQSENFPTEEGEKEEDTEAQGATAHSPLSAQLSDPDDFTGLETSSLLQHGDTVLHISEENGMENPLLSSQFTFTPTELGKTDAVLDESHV

Question: How did the buried solvent accessible surface area (crossover interface) turn out when “human UNC79 (uncoordinated 79; protein unc-79 homolog), Q9P2D8 1-2635” was run?
Answer: 3000 A2
